Experimental data published in paper doi:10.1101/2021.05.25.445681 (bioRxiv, 2021).

Biological target: the molecule itself
Test: cryo-EM structure

B1: E. coli MsbA (natural protein)
chain: MHNDKDLSTWQTFRRLWPTIAPFKAGLIVAGVALILNAASDTFMLSLLKPLLDDGFGKTDRSVLVWMPLVVIGLMILRGITSYVSSYCISWVSGKVVMTMRRRLFGHMMGMPVSFFDKQSTGTLLSRITYDSEQVASSSSGALITVVREGASIIGLFIMMFYYSWQLSIILIVLAPIVSIAIRVVSKRFRNISKNMQNTMGQVTTSAEQMLKGHKEVLIFGGQEVETKRFDKVSNRMRLQGMKMVSASSISDPIIQLIASLALAFVLYAASFPSVMDSLTAGTITVVFSSMIALMRPLKSLTNVNAQFQRGMAACQTLFTILDSEQEKDEGKRVIERATGDVEFRNVTFTYPGRDVPALRNINLKIPAGKTVALVGRSGSGKSTIASLITRFYDIDEGEILMDGHDLREYTLASLRNQVALVSQNVHLFNDTVANNIAYARTEQYSREQIEEAARMAYAMDFINKMDNGLDTVIGENGVLLSGGQRQRIAIARALLRDSPILILDEATSALDTESERAIQAALDELQKNRTSLVIAHRLSTIEKADEIVVVEDGVIVERGTHNDLLEHRGVYAQLHKMQFGQ
B1: binds.
